B1: NatT toxin (PA1030), His-tagged, wild type (enzyme)
chain: SEIWRQCKGERHIRPLQGRLVRLVESQEQVATLQLVDTLEEQALLEELLESSKPPVPADAEPLHYLLKTPFRYPPLRWGSRFGRRHEPSLFYAALKLETAMAESAYYRCVLWSGMVVPPPSGRILSEHASFEAGWKVERGIRLQAPPFSDHEAALTDIADYRAPQELGSAMRSAGVQAFEYRSARCPERGCNVALFTPAAFTEKRPRNLTPWLCETTAGYVAFKPAHVPGSPKIFSWELFLVDGKLPHPA
notes: also called NAD+ degrading toxin; RES domain toxin; source: E. coli BL21 (DE3), pRSF-Duet-1, co-expressed with NatR, purified as a complex (HisTrap, SEC)

Assays:
[1] = target: NatR anti-toxin (PA1029), co-expressed with His-tagged NatT in E. coli (Pseudomonas aeruginosa); assay: mass photometry; co-purified NatR-NatT complexes at a final concentration of 10 nM, 50 mM Bicine pH 8.5, 50 mM KCl, Refeyn OneMP
[2] = target: NatT toxin (PA1030), His-tagged, wild type (Pseudomonas aeruginosa) (UniProt Q9I4U4); assay: as above
[3] = target: NatR anti-toxin (PA1029), co-expressed with His-tagged NatT in E. coli (Pseudomonas aeruginosa); assay: crystal structure; NatR-NatT wild-type complex, sitting drop, 2.5 mg/ml, 0.2 M sodium sulfate, 0.1 M Bis-Tris propane 7.5, 20% PEG 3350, 20 C
[4] = target: the molecule itself; assay: as above

Molecule | stoichiometry N [1] | stoichiometry N (NatR per NatT) [2] | stoichiometry N [3] | stoichiometry N [4]
NatR anti-toxin (PA1029), co-expressed with His-tagged NatT in E. coli (natural protein) | 2 | 2 | 2 | 
B1 |  |  |  | 2

From publication PMC11535050 (The EMBO Journal, 2024)
